Assay results published in PMC11281603.

Target: polymeric Ig receptor (pIgR) fused to the FLAG tag (UniProt P01833)
Conditions: parent: 1.00

Sequence of UniProt P01833 (P01833 19-764): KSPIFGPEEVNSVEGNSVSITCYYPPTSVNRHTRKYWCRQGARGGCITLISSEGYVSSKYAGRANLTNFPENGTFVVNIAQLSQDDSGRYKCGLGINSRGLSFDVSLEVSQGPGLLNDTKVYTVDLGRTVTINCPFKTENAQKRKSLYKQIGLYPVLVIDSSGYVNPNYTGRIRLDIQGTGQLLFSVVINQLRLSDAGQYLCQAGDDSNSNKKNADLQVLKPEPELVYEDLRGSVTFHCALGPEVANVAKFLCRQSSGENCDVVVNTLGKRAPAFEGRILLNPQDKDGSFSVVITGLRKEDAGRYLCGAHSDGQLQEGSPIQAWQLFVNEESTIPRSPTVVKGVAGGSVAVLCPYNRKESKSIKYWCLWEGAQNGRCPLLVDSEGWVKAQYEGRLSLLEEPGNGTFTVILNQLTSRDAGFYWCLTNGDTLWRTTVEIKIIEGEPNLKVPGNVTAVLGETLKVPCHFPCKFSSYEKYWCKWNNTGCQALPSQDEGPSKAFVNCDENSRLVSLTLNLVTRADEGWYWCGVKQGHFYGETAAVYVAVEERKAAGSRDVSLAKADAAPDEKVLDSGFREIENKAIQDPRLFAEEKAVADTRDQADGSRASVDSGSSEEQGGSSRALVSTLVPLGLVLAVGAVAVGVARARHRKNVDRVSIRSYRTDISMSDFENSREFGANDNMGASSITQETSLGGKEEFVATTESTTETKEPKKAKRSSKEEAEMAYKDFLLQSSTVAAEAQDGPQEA

Substance: WT SARS-CoV-2 ORF8 fused to a C-terminal Strep-II tag (from UniProt P0DTC8) C20A
- ratio to parent: 0.43

Substance: WT SARS-CoV-2 ORF8 fused to a C-terminal Strep-II tag (from UniProt P0DTC8) R115A
- ratio to parent: 1
